Measurements as given in US20210347908A1 (ELPISCIENCE SUZHOU BIOPHARMA, published 2021).

Legend:
[1] = target: T1, 6×His tagged human SIRPα v1 ECD recombinant protein (human, UniProt P78324 31-373); experiment: SPR (Biacore)
T1 construct: extracellular domain; bought; also called hSIRPα V1 (SPR antigen)
Procedure: (§1) Anti-SIRPα chimeric antibodies were characterized for binding affinity against human SIRPα v1, human SIRPα v2 and C57BL/6 mouse SIRPα using Biacore (GE). Briefly the antibodies to be tested were captured to CM5 chip (GE) using Human Antibody Capture Kit (GE). The antigens of 6×His tagged human SIRPα v1, human SIRPα v2 and C57BL/6 mouse SIRPα ECD recombinant proteins were serially diluted for multiple doses and injected at 30 μl/min for 180 s. Buffer flow was maintained for dissociation of 400 s. 3 M MgCl₂ was used for chip regeneration. The association and dissociation curves were fit with 1:1 binding model, and the Ka/Kd/KD values for each antibody were calculated.

[2] = target: T2, 6×His tagged human SIRPα v2 ECD recombinant protein (human); experiment: SPR (Biacore)
Procedure: as §1

[3] = target: T3, full length cyno SIRPα stably expressed on CHOK1 cells (cynomolgus monkey, UniProt A0A2K5VYQ9 31-507); experiment: FACS on CHOK1 cells
T3 construct: whole, on cells; also called CHOK1-cyno SIRPα-2A2 cells; CHOK1-cyno SIRPα
T3 sequence: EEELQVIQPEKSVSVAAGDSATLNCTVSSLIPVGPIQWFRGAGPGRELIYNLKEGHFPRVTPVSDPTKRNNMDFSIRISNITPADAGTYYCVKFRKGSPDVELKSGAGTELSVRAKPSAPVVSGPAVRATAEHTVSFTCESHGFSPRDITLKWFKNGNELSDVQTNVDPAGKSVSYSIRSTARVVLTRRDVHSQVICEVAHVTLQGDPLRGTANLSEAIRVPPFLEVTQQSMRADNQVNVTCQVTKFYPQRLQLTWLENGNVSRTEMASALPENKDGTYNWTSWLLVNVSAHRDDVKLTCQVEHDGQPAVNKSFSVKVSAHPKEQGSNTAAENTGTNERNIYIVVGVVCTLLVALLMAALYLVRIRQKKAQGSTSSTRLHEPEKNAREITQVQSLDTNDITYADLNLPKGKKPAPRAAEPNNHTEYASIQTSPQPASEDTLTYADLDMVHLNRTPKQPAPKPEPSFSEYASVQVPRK
Procedure, shortened: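 Geometric median fluorescence gave EC50 values. CHOK1 lines stably carrying full-length SIRPα (2×10⁵ cells) were incubated with antibody for 1 h at 4 °C, washed, and stained with labelled anti-mouse or anti-human IgG for 1 h at 4 °C.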

[4] = target: T1, 6×His tagged human SIRPα v1 ECD …; experiment: SPR (Biacore), antibody captured
Procedure: as §1

[5] = target: T4, 6×His tagged C57BL/6 mouse SIRPα ECD recombinant protein (mouse (C57BL/6), UniProt P97797 32-373); experiment: SPR (Biacore), antibody captured
T4 construct: extracellular domain; bought; also called mSIRPα (C57BL/6); mouse SIRPα (C57BL/6) ECD
T4 sequence: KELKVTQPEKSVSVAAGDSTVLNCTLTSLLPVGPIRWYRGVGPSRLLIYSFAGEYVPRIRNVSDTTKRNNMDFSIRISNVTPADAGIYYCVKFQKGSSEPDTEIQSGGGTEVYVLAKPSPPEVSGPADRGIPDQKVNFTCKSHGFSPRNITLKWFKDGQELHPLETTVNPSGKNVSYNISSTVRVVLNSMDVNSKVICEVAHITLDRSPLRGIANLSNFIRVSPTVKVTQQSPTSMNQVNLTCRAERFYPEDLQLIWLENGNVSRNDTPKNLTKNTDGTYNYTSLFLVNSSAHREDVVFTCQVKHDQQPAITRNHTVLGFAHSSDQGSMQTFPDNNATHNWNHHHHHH
Procedure: as §1

[6] = target: T2, 6×His tagged human SIRPα v2 ECD …; experiment: SPR (Biacore), antibody captured
Procedure: as §1

[7] = target: T5, biotin labeled soluble human SIRPα v1 ECD recombinant protein (human, UniProt P78324 31-373, biotin labeled); experiment: competitive ELISA; competitor 022
T5 construct: extracellular domain
Procedure: Competitive ELISA assay was used for epitope binning of 9 functional antibodies. Briefly excessive competitor antibody and biotin labeled soluble human SIRPα v1 ECD recombinant protein were co-incubated with ELISA microplate coated antibody. After washing, HRP-SA was added and incubated at 37° C. for 1 hour. Then, […] of TMB solution (Biotechnology) was added. After incubation for 15 minutes at room temperature, the reaction was stopped by the addition of […] of 1N HCl. OD 450 nm was read. Competition ratio was calculated. The antibodies that can compete each other for binding to SIRPα have the similar binding epitope.

B1: chimeric antibody 001c (antibody, V domains shown)
VH: EVKLEESGGGLVQPGGSMKLSCVASGFTFRNYWMNWVRQSPERGLEWIAEISLKSNTYATHYAESVKGRFAISRDGSKSSFYLQMNDLRAEDTGIYYCTTFTKVVADWHLDVWGAGTTVTVSS
VL: DVLMTQTPLSLPVSLGDQASISCRSSQNIVHSNGNTYLEWYLQKPGQSPKLLIYKVSNRFSGVPDRFSGSGSGTDFTLRISRVEAEDLGVYYCFQGSHVPFTFGSGTKLEIK
B1 was tested, and the Kd [1] was 11.4 nM, the Kd [2] was 20.6 nM and the “MFI at 10 nM” value [3] was 24900 MFI. It also gave a Kd [4] of 11.4 nM, a koff [4] of 0.000855 s⁻¹ and a kon [4] of 74900 M⁻¹ s⁻¹. The binding result [5] was “no binding”, the Kd [6] was 20.6 nM and the koff [6] was 0.000816 s⁻¹. It also gave a kon [6] of 39700 M⁻¹ s⁻¹.

B2: Antibody 001 (hybridoma antibody) (antibody, V domains shown)
VH: EVKLEESGGGLVQPGGSMKLSCVASGFTFRNYWMNWVRQSPERGLEWIAEISLKSNTYATHYAESVKGRFAISRDGSKSSFYLQMNDLRAEDTGIYYCTTFTKVVADWHLDVWGAGTTVTVSS
VL: DVLMTQTPLSLPVSLGDQASISCRSSQNIVHSNGNTYLEWYLQKPGQSPKLLIYKVSNRFSGVPDRFSGSGSGTDFTLRISRVEAEDLGVYYCFQGSHVPFTFGSGTKLEIK
notes: mouse hybridoma antibody
In the case of B2, the “% Competition” value [7] is reported as -19%.

B3: Antibody 002 (hybridoma antibody) (antibody, V domains shown)
VH: EVKLEESGGGLVQPGGSMILSCVASGFTFRNYWMNWVRQSPERGLEWIAEITLKSNTYATHYAESVKGRFAISRDDSKSSFYLQMNDLRPEDTGIYYCTTFTKVVADWHLDVWGAGTTVTVSS
VL: DVLMTQTPLSLPVSLGDQASISCRSSQNIVHSNGNTYLEWYLQKPGQSPKLLIYKISNRFSGVPDRFSGSGSGTDFTLRISRVEAEDLGVYYCFQGSHVPFTFGSGTKLEIQ
notes: mouse hybridoma antibody
B3 was tested, and the “% Competition” value [7] was -5%.

B4: Antibody 032 (hybridoma antibody) (antibody, V domains shown)
VH: EVRLEESGGGLVQPGGSMKLSCVVSGFTFRNYWMNWVRQSPERGLEWIAEITLKSNTYATHYAESVKGRFAISRDDSKSSFYLQMNDLRPEDTGIYYCTTFTKVVADWHLDVWGAGTTVTVSS
VL: DVLMTQTPLSLPVNLGDQASISCRSSQNIVHSNGNTYLEWYLQKPGQSPKLLIYKVSNRFSGVPDRFSGSGSGTDFTLRISRVEAEDLGVYYCFQGSHVPFTFGSGTKLEIK
notes: mouse hybridoma antibody
With B4 the “% Competition” value [7] was 1%.

B5: chimeric antibody 032c (antibody, V domains shown)
VH: EVRLEESGGGLVQPGGSMKLSCVVSGFTFRNYWMNWVRQSPERGLEWIAEITLKSNTYATHYAESVKGRFAISRDDSKSSFYLQMNDLRPEDTGIYYCTTFTKVVADWHLDVWGAGTTVTVSS
VL: DVLMTQTPLSLPVNLGDQASISCRSSQNIVHSNGNTYLEWYLQKPGQSPKLLIYKVSNRFSGVPDRFSGSGSGTDFTLRISRVEAEDLGVYYCFQGSHVPFTFGSGTKLEIK
In the case of B5, the Kd [1] is reported as 8.92 nM, the Kd [2] is reported as 14.7 nM and the “MFI at 10 nM” value [3] is reported as 19000 MFI. For the same binder, the Kd [4] was 8.92 nM, the koff [4] was 0.000834 s⁻¹ and the kon [4] was 93500 M⁻¹ s⁻¹. For the same binder, the Kd [6] was 14.7 nM, the koff [6] was 0.000774 s⁻¹ and the kon [6] was 52600 M⁻¹ s⁻¹.

B6: chimeric antibody 060c (antibody, V domains shown)
VH: QVQLKESGPGLVAPSESLSITCTVSGFSLTNYDISWIRQSPGKGLEWLGVIWTGGDTNFNSAFMSRLSISKDKSKSQVFLKLNSLQTDDTAIYYCVRVQYFGGSYGPMDYWGQGISVTVSS
VL: DIQMTQASSYLSVSLGGRVTITCEASDHINDWLAWYQQTPGNAPRLLISGATSLETGVPSRFSGSGSGKDYTLSITSLQTEDIATYYCQQYWNTPLTFGAGTRLELK
For B6, the Kd [1] was 1.49 nM, the binding result [3] was “no binding (tested: 10 nM)” and the Kd [4] was 1.49 nM. The koff [4] was 0.000141 s⁻¹, the kon [4] was 94400 M⁻¹ s⁻¹ and the binding result [5] was “no binding”.

B7: reference antibody KWAR23 (antibody, V domains shown)
VH: EVQLQQSGAELVKPGASVKLSCTASGFNIKDYYIHWVQQRTEQGLEWIGRIDPEDGETKYAPKFQDKATITADTSSNTAYLHLSSLTSEDTAVYYCARWGAYWGQGTLVTVSS
VL: QIVLTQSPAIMSASPGEKVTLTCSASSSVSSSYLYWYQQKPGSSPKLWIYSTSNLASGVPARFSGSGSGTSYSLTISSMEAEDAASYFCHQWSSYPRTFGAGTKLELK
With B7 the Kd [1] was 2.66 nM, the Kd [2] was 14.7 nM and the “% Competition” value [7] was 6%.

B8: reference antibody HEFLB (antibody, V domains shown)
VH: EVQLVQSGAEVKKPGESLRISCKASGYSFTSYWVHWVRQMPGKGLEWMGNIDPSDSDTHYSPSFQGHVTLSVDKSISTAYLQLSSLKASDTAMYYCVRGGTGTLAYFAYWGQGTLVTVSS
VL: DVVMTQSPLSLPVTLGQPASISCRSSQSLVHSYGNTYLYWFQQRPGQSPRLLIYRVSNRFSGVPDRFSGSGSGTDFTLKISRVEAEDVGVYYCFQGTHVPYTFGGGTKVEIK
For B8, the “% Competition” value [7] was 4%.

B9: reference antibody 29-AM4-5 (antibody, V domains shown)
VH: EVQLVESGGGLVQPGGSLRLSCAASGFNISYYFIHWVRQAPGKGLEWVASVYSSFGYTYYADSVKGRFTISADTSKNTAYLQMNSLRAEDTAVYYCARFTFPGLFDGFFGAYLGSLDYWGQGTLVTVSS
VL: DIQMTQSPSSLSASVGDRVTITCRASQSVSSAVAWYQQKPGKAPKLLIYSASSLYSGVPSRFSGSRSGTDFTLTISSLQPEDFATYYCQQAVNWVGALVTFGQGTKVEIK
With B9 the “% Competition” value [7] was 8% and the “MFI at 10 nM” value [3] was 27600 MFI.

B10: Antibody 035 (hybridoma antibody) (antibody, V domains shown)
VH: QIQLVQSGPELRKPGETVKISCKASGYSFTNYAMNWVKQAPGKVLKWMGFINTYTGEPTYADDFKGRFAFSLETSASTAYLQINNLKNEDTATYFCTRTRGYYDFDGGAFDYWGQGTSLTVSS
VL: DIVMTQSQKFMSTSIGDRVSVTCKASQNVGTHLAWYQQKPGQSPKALIFSASYRYIGVPDRFTGSGSGTDFTLTITNVQSEDLAEYFCQQYNTYPLTFGAGTKLELK
notes: mouse hybridoma antibody
For B10, the “% Competition” value [7] was -1%.

B11: Antibody 074 (hybridoma antibody) (antibody, V domains shown)
VH: QVQLQQPRAELVKPGASVMLSCKASGYTFSSYWIHWVRQGPGQGLEWIGLIHPNSGNTDCSETFKNKATLTVDTSSSTAYMQLSSLASEDSAVYYCARDGASYDWFVHWGQGTLVTVSA
VL: not shown
notes: mouse hybridoma antibody
B11 was tested, and the “% Competition” value [7] was -5%.

B12: Antibody 022 (hybridoma antibody) (antibody, V domains shown)
VH: QIQLVQSGPELKKPGETVKISCKASGYTFTDYAMHWVKQAPGKGLKWMGWKNTETGESTYAEDFKGRFAFFLETSASTAYLQINNVKNEDTATYFCARGGYGSNYVMDYWGQGTSVIVSS
VL: DIQMTQSSSSFSVSLGDRVTITCKASEDIYNRLAWYQQKPGNAPRLLISGATSLETGVPSRFSGSGSGKDYTLSITSLQTEDVATYYCQQYWNSPRTFGGGTKLEIK
notes: mouse hybridoma antibody
For B12, the “% Competition” value [7] was 81%.

B13: Antibody 050 (hybridoma antibody) (antibody, V domains shown)
VH: QIQLVQSGPELKKPGETVKISCKASGYTFTHYSMHWVKQAPGKGLKWMGWINTETAEPTYVDDFKGRFAFSLEASASTAFFQINNLKNEDTATYFCARGGLRQGDYWGQGTTLTVSS
VL: QIVLTQSPPIMSASPGEKVTLTCSATSSVSASYLYWFQQKPGSSPKLWIYSTSNLASGVPARFSGSGSGTSYSLTISNMEPADAASYFCHQWSSYPYTFGGGTKLEIK
notes: mouse hybridoma antibody
With B13 the “% Competition” value [7] was 79%.

B14: Antibody 060 (hybridoma antibody) (antibody, V domains shown)
VH: QVQLKESGPGLVAPSESLSITCTVSGFSLTNYDISWIRQSPGKGLEWLGVIWTGGDTNFNSAFMSRLSISKDKSKSQVFLKLNSLQTDDTAIYYCVRVQYFGGSYGPMDYWGQGISVTVSS
VL: DIQMTQASSYLSVSLGGRVTITCEASDHINDWLAWYQQTPGNAPRLLISGATSLETGVPSRFSGSGSGKDYTLSITSLQTEDIATYYCQQYWNTPLTFGAGTRLELK
notes: mouse hybridoma antibody
With B14 the “% Competition” value [7] was 10%.
